Publication PMC6465249 (Cell Discovery, 2019)

Target: Recombinant hemagglutinin of H3N2 A/Texas/50/2012, ectodomain, monomeric (Influenza A virus A/Texas/50/2012 (H3N2), UniProt R4L1D1, strain)
Test: SPR
Conditions: both partners purified

B1: AF4H1K1 Fab (Fab, V domains shown)
VH: QVQLVESGGGVVQPGTSLRLSCEASGFTSSAYAMHWVRQAPGKGLEWVAVITFDGGYQYYADSVKGRFTISRDISRNTLHLHMNSLRAEDTAVYYCARDPLTKLLPFDWVSGGYFDYWGQGTLVTVSS
VL: not shown
notes: also called H1 paired with K1
In the case of B1, the Kd is reported as 49 nM.
